Results taken from publication PMC2529400.

Molecular target: KSHV viral G protein-coupled receptor, Flag-tagged (vGPCR-Flag) (Kaposi's sarcoma-associated herpesvirus (human herpesvirus 8)) (UniProt Q98146)
UniProt Q98146, sequence (Q98146 whole entry): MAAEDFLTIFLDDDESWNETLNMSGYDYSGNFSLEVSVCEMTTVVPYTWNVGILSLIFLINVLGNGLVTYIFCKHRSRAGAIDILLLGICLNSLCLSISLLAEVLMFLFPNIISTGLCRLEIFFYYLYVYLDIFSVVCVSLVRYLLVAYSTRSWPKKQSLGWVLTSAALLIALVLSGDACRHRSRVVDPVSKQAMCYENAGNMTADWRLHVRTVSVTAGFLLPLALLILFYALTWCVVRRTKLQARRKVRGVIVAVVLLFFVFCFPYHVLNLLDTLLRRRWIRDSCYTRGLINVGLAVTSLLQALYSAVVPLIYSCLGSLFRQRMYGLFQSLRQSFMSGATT

Substance: KSHV K7 small membrane protein, V5-tagged (K7-V5), wild type (natural protein)
- AP-1 luciferase reporter activation by vGPCR in 293T cells with K7 co-expressed (about 4.5 fold without K7): 2 fold
- NF-AT luciferase reporter activation by vGPCR in 293T cells with K7 co-expressed (about 25 fold without K7): 8 fold
- NF-κB luciferase reporter activation by vGPCR in 293T cells with K7 co-expressed (about 4 fold without K7): 2 fold
